By Kd is commonly meant the equilibrium constant for the complex coming apart. Higher therefore signals weaker binding.

Where no end group is shown, it is not given here.

The target in experiment [1] is T1, BH3 domain binding site on Bcl-XL (Homo sapiens, UniProt Q07817).
T1 construct: made in house; host or cells: E. coli BL21 (DE3) pLysS
As to the kind of experiment: Competition assay with Bak BH3 domain peptide in the Bcl-XL binding assay. As to conditions: 20 μM Bak BH3 competitor (SEQ ID NO: 152); 100 μM for some polypeptides. Here is the method:
(§1) Only three of the selected proteins (Bim, Bak, and Bax) were previously known to contain a BH3 domain. In order to determine if the other proteins bound to the BH3 domain binding site on Bcl-XL, a competition assay was performed. The Bak BH3 domain peptide used as a positive control was prepared by chemical synthesis and used to compete with individual Bcl-XL-binding polypeptides in a Bcl-XL binding assay. […] At a fixed concentration of immobilized Bcl-XL, the Bak BH3 domain-containing peptide […] (SEQ ID NO: 152), also containing a FLAG-M2 epitope, was added at the indicated concentration along with a trace amount of a selected Talin fragment. After binding for 1 hour, the unbound material was removed and the bound protein was quantitated. The bound protein was assayed by scintillation counting, normalized to that bound in the absence of competitor, and plotted versus competitor concentration.
A competition assay was performed for each of the selected Bcl-XL-binding polypeptides using 20 μM Bak BH3 competitor based on the titration shown in FIG. 6. Due to poor competition with the Bcl-XL-binding polypeptides having the lowest Kd values (as determined above) a second competition was performed for some of these polypeptides using 100 μM competitor (FIG. 3A).

The target of experiment [2] is T2, human Bcl-XL-GST fusion protein (human, UniProt P08515 1-218 = GST; Q07817 1-211).
T2 construct: Made in E. coli, immobilized on glutathione Sepharose beads; whole entry named; also called Bcl-XL-glutathione S-transferase (GST) fusion protein; GST-BCL-XL
As to the kind of experiment: mRNA display selection on immobilized Bcl-XL-GST; cluster found among sequenced clones.

The target in experiment [3] is T2, human Bcl-XL-GST fusion protein. As to the kind of experiment: 35S-labeled free peptide on Bcl-XL-GST beads, target concentration varied, scintillation counting; relative Kd. How it is done:
(§2) Detection of a polypeptide binding to a Bcl-XL-glutathione S-transferase (GST) fusion protein was carried out as follows. Twenty microliters of glutathione Sepharose 4B slurry (AP Biotech) was aliquoted to a microcentrifuge tube and washed with PBS. The Bcl-XL-GST fusion protein (60 μg), prepared as describe above, was added and allowed to bind to the Sepharose beads for 1 hr at 4° C. The beads were then re-washed in selection buffer (50 mM Tris-HCL pH 7.5, 150 mM KCl, 0.05% Triton X-100, 0.5 mg/ml BSA, and 0.1 mg/ml salmon sperm DNA). The Bcl-XL-GST beads were resuspended in 100 μl of selection buffer (approximately 11.5 μM Bcl-XL) and ³⁵S-labeled mRNA display construct or free peptide was added (approximately 10-60 nM) and incubated on a rotator for 1 hr at 4° C. The reaction was then transferred to a microcentrifuge column (BioRad) and unbound mRNA display constructs or free peptides were removed by a 10 sec spin at 1,000 rpm. The Sepharose beads were then washed three times with 500 μl of selection buffer. The extent of binding between the Bcl-XL-GST fusion protein and the mRNA display constructs or free peptides was determined by scintillation counting each fraction, including the recovered beads.
Purified radioactively labeled protein from the individual clones was incubated with immobilized Bcl-XL-GST for one hour and, after washing, the amount bound was determined by scintillation counting. The binding at each concentration was normalized to that at the highest concentration and plotted versus concentration. FIG. 5 is a representational plot of the results of this binding assay. A selected Bak fragment ([…]; SEQ ID NO: 152), containing a FLAG-M2 epitope, was synthetically produced as a free protein and used in a binding assay in which the concentration of immobilized Bcl-XL-GST was varied from 11 nM to 28 μM. The amount of peptide bound to Bcl-XL was determined by scintillation counting and normalized to that bound at the highest concentration. Normalized binding was then plotted versus Bcl-XL concentration and fit to a binding curve using nonlinear regression. […] However, only binding curves that gave a high correlation coefficient ® value) were used to determine an affinity.

The target is the same in experiment [4]. As to the kind of experiment: free peptide on immobilized Bcl-XL-GST with Bak BH3 competitor. Here is the method:
as §1
A competition assay was performed for each of the selected Bcl-XL-binding polypeptides using 20 μM Bak BH3 competitor based on the titration shown in FIG. 6.

The target is the same in experiment [5]. As to the kind of experiment: second mRNA display selection on immobilized Bcl-XL-GST.
The target is the same in experiment [6]. As to the kind of experiment: mRNA display selection on immobilized Bcl-XL-GST. How it is done: as §2
A human Bcl-XL-GST fusion protein was immobilized on Sepharose beads as described above for the binding assay and incubated with the mRNA display library. For the first round of selection, the input was approximately 0.06 pmol of each of the four source labeled libraries from human tissues (kidney, liver, bone marrow, and brain), which were mixed prior to selection. For subsequent rounds of selection, the input of each of the four source labeled libraries ranged from 0.25 to 0.92 pmol in total. After washing the beads of any unbound nucleic acid-protein fusion library members, the cDNA strand of the bound fusions were recovered in three elutions with 100 μl of 0.1N KOH. Eluates were subsequently neutralized by the addition of 2 μl of 1N Tris-HCL pH 7 and 8 μl of 1N HCL. A small scale PCR optimization was performed with the eluate to determine the number of cycles required to produce a strong signal without overamplification (typically 18-28 cycles). The library was then regenerated by PCR using the remainder of the eluate.

T1 sequence (Q07817 1-211): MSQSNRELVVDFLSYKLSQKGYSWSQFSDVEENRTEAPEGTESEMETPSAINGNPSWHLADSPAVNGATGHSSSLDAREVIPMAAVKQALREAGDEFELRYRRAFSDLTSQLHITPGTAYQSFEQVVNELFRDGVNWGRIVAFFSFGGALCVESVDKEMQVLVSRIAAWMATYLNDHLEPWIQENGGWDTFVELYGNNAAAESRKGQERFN
T2 sequence (P08515 1-218, tags or fused parts left off): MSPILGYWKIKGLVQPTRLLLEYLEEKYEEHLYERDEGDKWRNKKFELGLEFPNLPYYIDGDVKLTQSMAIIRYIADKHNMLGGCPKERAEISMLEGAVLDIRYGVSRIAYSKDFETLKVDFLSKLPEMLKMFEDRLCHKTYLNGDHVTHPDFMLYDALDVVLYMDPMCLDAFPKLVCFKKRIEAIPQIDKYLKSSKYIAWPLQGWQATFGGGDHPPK

Turning to “x42: selected polypeptide, SEQ ID NO: 35; cDNA FLJ23277, Clone HEP03322 (Table 1) (NGNLFASFIADS)”, in experiment [1], the “competition by Bak BH3 domain (BakBH3 effect), bound normalized to reaction without competitor” value is “not competed at all”.
The same measure, in the same setting: under “t53: selected Bcl-XL-binding polypeptide, SEQ ID NO: 25 (LDPVKDVLILSALRRMLWAADDFLEDLPFEQIG; listed as Homo sapiens)” stands “not competed at all”.
The same measure, in the same setting: under “w75: selected Bcl-XL-binding polypeptide, SEQ ID NO: 37 (RTLQPRLLQNQQQHLPALPIWFLLQWLRLHPL; listed as Homo sapiens)” stands “not competed at all”.

B1: clone x42 (cDNA FLJ23277, Clone HEP03322) (peptide)
chain: NGNLFASFIADS
notes: mRNA display clone from a hypothetical or unknown polypeptide
Regarding B1, the binding result in experiment [2] is listed as “binds”.
Take ATRQALNEISARHSGIQQLERSIRELHDIFTFL [Syntaxin 4A, clone U58]: in experiment [3], the Kd worked out at 640 nM. This counts as sub-micromolar.
The same measure, in the same setting: then IAQATKATIDKWNCIKLKIFYTSKKEAS-{FLAG‑M2 epitope} (also: 35S-Met labelled in vitro translation product) [Novel protein I, clone C21], with 70 nM.

B2: SEQ ID NO 33 (peptide)
chain: ALSWIEMDTEMEMLLARFRRTPGDLHLDHSVHLCAHP
notes: as for B1
Turning to B2, the binding result in experiment [4] is “binds”.
In experiment [3], FWLEERDFEAGVFELEAIVNSIKRS [Toll-like receptor 3, clone U15] gave a Kd of 781 nM. This counts as sub-micromolar.
Same read-out and setting: then QRGMLYYQTEKYDLAIKDLKEALIQLRGNN (fragment limits not in text) [Neutrophil cytosolic factor 2, clone T95], with 4.16 nM; and KLSECLKRIGDELDSNMELQRMIAAVDTDSPR (peptide, UniProt Q07812 58-89, looked up) [Bax, clone C49], with 760 nM.

B3: SEQ ID NO 6 (peptide)
chain: GGESDTDPHFQDALMQLAKAVASAAAALVLKAKSVAQR
notes: mRNA display clone from a known polypeptide
In the case of B3, the binding result in experiment [4] is listed as “binds”.
Regarding MFSDIYGIREIADGLCLEVEGKMVSRPE [Tumor protein HDCMB21P, clone V50], the Kd in experiment [3] was 690 nM.
Still for that read-out and setting: under GTRQDRMFETMAIEIEQLLARLTGVNDKMAEYTNA [Golgi SNAP receptor complex member 1, clone V06] stands 467 nM.

B4: SEQ ID NO 228 (peptide)
chain: TLRHWGLQFNTRFGV
notes: Second selection; clone from a hypothetical or unknown polypeptide
B4: the binding result in experiment [5] is “binds”.
Regarding AVQEDPVQREIHQDWANREYIEIITSSIKKIAD (also called HSCP300) [HSPC300, clone C68], in experiment [3], the affinity, expressed as Kd, was 580 nM.

B5: SEQ ID NO 31 (peptide)
chain: MRDLPGHYYETLKFLVGHLKTIADHR
notes: as for B1
Regarding B5, in experiment [6], the binding result is on record as “binds”.
For the molecule SRREEAWDALFRGI (Second selection) [SEQ ID NO 229], the binding result in experiment [5] is listed as “binds”.

B6: Talin (splice variant), clone X56 (peptide)
peptide: GGESDTDPHFQDALMQLAKAVASAAAALVLKAKSVAQR-{FLAG‑M2 epitope}
modifications: also: 35S-Met labelled in vitro translation product
notes: fragment limits not in text; also called selected Talin fragment
The molecule B6 yielded a Kd in experiment [3] of 93 nM.
The molecule GQVGRQLAIIGDDINRRK [Bak, clone C32] came in with a Kd in experiment [3] of 402 nM.

B7: Bcl-2 related protein BPR, clone Y75 (peptide)
peptide: TGKEAILRRLVALLEEEAEVINQKLASDPALRSKLVRLSSDSFAHL
notes: also called Bcl-2 related proline-rich protein BPR
In experiment [3], B7 displayed a Kd of 420 nM.
Consider TLREIGDLYLTSILGRR (Second selection) [SEQ ID NO 230], for which the binding result in experiment [5] is listed as “binds”.

B8: SEQ ID NO 224 (peptide)
chain: KYQQLFEDIRW
notes: Second selection; clone from a known polypeptide
On to B8, for which the binding result in experiment [5] is “binds”.

B9: Novel protein D, clone T25 (peptide)
peptide: GTRISDMLKLIADTWQRNCCPA-{FLAG‑M2 epitope}
modifications: cysteine pairing not given here; also: 35S-Met labelled in vitro translation product
Turning to B9, the affinity in experiment [3], expressed as Kd, was 1610 nM.

B10: proline/glutamine rich splicing factor cluster polypeptide (peptide)
chain: RGLWVDRVLEEWGLEPRQ
notes: Selected clone translated from the incorrect reading frame of the parent mRNA; not further characterized
As for B10, the binding result in experiment [2] was “binds”.

B11: SEQ ID NO 12 (peptide)
chain: MKWDTDNTLGTEISWENKLAEGLKLTLDTIFVHHVLHAPH
notes: as for B3
B11: the binding result in experiment [4] is “binds”.

B12: SEQ ID NO 32 (peptide)
chain: CGGRMEDIPCSRVGHIYRKYVPYKVPAGVSLARNLKRVADWM
notes: as for B1
For B12, the binding result in experiment [6] is on record as “binds”.

B13: SEQ ID NO 227 (peptide)
chain: MGDVVGFIDELEGAVSDLHRAL
notes: as for B4
Turning to B13, in experiment [5], the binding result is reported as “binds”.
In experiment [3], ASMRQAEPADMRPEIWIAQELRRIGDEFNAYYARE (fragment limits not in text) [Bim, clone T44] gave a Kd of 2 nM.

B14: SEQ ID NO 30 (peptide)
chain: GLKLATVAASMDRVPKVTPSSAISSIARENHEPERLGLNGIAETT
notes: as for B1
As for B14, in experiment [6], the binding result is recorded as “binds”.

B15: SEQ ID NO 29 (peptide)
chain: AGVFSAEPSPFPQTRRSMVFARHLREVGDEFRSRHLNSTDDADE
notes: as for B1
For the molecule B15, in experiment [6], the binding result is “binds”.
As to MKWDTDNTLGTEISWENKLAEGLKLTLDTIFVHHVLHAPH-{FLAG‑M2 epitope} (also: 35S-Met labelled in vitro translation product) [Voltage dependent anion channel 3, clone W06], the affinity in experiment [3], expressed as Kd, was 1120 nM. This lies in the single-digit micromolar range.

The record behind these values is patent publication US20030032157A1, “Polypeptides interactive with Bcl-XL” (priority 2001, published 2003).
